One block for each molecule: values may come before it.
B2: Pol III subunit C53 (within purified Pol III) (natural protein, UniProt P25441 1-422, looked up)
chain: MSSNKGNGRLPSLKDSSSNGGGSAKPSLKFKPKAVARKSKEEREAAASKVKLEEESKRGNDKKHFNNKNKRVTGAGGQQRRMAKYLNNTHVISSGPLAAGNFVSEKGDLRRGFIKSEGSGSSLVQKGLETIDNGAESSENEAEDDDNEGVASKSKKKFNMGKEFEARNLIEDEDDGESEKSSDVDMDDEEWRSKRIEQLFPVRPVRVRHEDVETVKREIQEALSEKPTREPTPSVKTEPVGTGLQSYLEERERQVNEKLADLGLEKEFQSVDGKEAAAELELLNADHQHILRKLKKMNNKPERFMVFQLPTRLPAFERPAVKEEKEDMETQASDPSKKKKNIKKKDTKDALSTRELAGKVGSIRVHKSGKLSVKIGNVVMDIGKGAETTFLQDVIALSIADDASSAELLGRVDGKIVVTPQI
notes: RNA polymerase III subunit C53, S. cerevisiae; N-terminal low-complexity region C53-Nt is residues 1-274; Subunit of m2, written alone for the pairs that touch in the structures; source: endogenous, S. cerevisiae strain SC1613, purified as part of Pol III (IgG Sepharose, TEV elution, Mono-Q)

What was measured:
[1] = target: RNA polymerase III (Pol III), 17 subunits, isolated from yeast (S. cerevisiae (endogenous in strain SC1613)) (UniProt P04051); assay: native gel or EMSA; recombinant IN1 mixed with Pol III isolated from yeast, free of nucleic acids; native gel electrophoresis
[2] = target: T1, Pol III subunit C37 (within purified Pol III) (S. cerevisiae (endogenous in strain …, UniProt P36121 1-282)); assay: cryo-EM structure; Pol III and IN1 both at 0.5 uM in 20 mM HEPES-NaOH pH 7.5, 170 mM NaCl, 2 mM DTT, 30 min at 4 °C; crosslinked with 0.06% glutaraldehyde; no nucleic acids (maps A-C); settings: both partners purified
T1 construct: RNA polymerase III subunit C37, S. cerevisiae; Subunit of m2, written alone for the pairs that touch in the structures; source: endogenous, S. cerevisiae strain SC1613, purified as part of Pol III (IgG Sepharose, TEV elution, Mono-Q)
T1 sequence (looked up): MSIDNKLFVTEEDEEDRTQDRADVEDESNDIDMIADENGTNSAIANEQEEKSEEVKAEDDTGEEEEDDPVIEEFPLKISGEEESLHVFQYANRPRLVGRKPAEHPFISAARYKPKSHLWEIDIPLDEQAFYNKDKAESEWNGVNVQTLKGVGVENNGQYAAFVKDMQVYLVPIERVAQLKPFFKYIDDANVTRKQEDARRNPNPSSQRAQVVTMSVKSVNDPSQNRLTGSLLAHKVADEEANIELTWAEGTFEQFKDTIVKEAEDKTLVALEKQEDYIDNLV

[3] = target: B2; assay: as above; settings: both partners purified
[4] = target: T2, Pol III subunit C128 (within purified Pol III) (S. cerevisiae (endogenous in strain …, UniProt P22276 1-1149)); assay: as above; settings: both partners purified
T2 construct: RNA polymerase III second largest subunit C128, S. cerevisiae; Subunit of m2, written alone for the pairs that touch in the structures; source: endogenous, S. cerevisiae strain SC1613, purified as part of Pol III (IgG Sepharose, TEV elution, Mono-Q)
T2 sequence (looked up): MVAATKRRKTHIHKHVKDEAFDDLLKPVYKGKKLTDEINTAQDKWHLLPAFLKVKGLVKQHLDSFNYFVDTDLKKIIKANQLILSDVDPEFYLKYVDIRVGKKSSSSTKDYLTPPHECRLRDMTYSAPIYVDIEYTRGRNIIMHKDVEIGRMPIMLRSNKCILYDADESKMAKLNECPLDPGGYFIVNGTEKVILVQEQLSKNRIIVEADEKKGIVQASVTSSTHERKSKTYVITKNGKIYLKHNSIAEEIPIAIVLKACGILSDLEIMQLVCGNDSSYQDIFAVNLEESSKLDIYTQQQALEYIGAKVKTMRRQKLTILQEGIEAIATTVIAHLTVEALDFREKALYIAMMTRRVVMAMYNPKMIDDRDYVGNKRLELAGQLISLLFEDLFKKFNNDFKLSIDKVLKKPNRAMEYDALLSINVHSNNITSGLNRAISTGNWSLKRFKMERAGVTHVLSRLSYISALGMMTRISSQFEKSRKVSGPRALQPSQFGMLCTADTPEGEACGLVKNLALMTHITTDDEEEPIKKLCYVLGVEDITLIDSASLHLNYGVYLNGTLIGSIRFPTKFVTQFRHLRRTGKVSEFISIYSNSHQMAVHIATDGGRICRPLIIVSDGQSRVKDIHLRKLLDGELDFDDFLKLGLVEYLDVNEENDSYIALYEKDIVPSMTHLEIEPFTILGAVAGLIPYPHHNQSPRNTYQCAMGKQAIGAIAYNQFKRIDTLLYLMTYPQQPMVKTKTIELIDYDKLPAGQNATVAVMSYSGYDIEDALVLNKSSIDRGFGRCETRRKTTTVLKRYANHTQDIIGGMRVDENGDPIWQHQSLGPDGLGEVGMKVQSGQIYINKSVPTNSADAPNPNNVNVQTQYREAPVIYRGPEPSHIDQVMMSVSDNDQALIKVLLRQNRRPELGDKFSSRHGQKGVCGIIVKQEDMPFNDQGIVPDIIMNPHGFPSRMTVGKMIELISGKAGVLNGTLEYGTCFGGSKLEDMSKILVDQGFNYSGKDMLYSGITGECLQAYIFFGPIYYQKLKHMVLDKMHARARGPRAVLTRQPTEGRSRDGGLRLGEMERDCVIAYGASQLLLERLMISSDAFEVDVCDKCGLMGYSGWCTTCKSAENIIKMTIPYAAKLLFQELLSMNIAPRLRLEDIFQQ

[5] = target: T3, Pol III subunit C160 (within purified Pol III) (S. cerevisiae (endogenous in strain …, UniProt P04051 1-1460)); assay: cryo-EM structure; Pol III-DNA (0.4 uM, mismatched transcription bubble) mixed with 0.6 uM IN1, 30 min at 20 °C in 10 mM Hepes pH 7.5, 150 mM NaCl, 5 mM MgCl2, 5 mM DTT; 8 mM CHAPSO on the grid (map D); settings: both partners purified
T3 construct: RNA polymerase III largest subunit C160, S. cerevisiae; Subunit of m2, written alone for the pairs that touch in the structures; source: endogenous, S. cerevisiae strain SC1613, purified as part of Pol III (IgG Sepharose, TEV elution, Mono-Q)
T3 sequence (looked up): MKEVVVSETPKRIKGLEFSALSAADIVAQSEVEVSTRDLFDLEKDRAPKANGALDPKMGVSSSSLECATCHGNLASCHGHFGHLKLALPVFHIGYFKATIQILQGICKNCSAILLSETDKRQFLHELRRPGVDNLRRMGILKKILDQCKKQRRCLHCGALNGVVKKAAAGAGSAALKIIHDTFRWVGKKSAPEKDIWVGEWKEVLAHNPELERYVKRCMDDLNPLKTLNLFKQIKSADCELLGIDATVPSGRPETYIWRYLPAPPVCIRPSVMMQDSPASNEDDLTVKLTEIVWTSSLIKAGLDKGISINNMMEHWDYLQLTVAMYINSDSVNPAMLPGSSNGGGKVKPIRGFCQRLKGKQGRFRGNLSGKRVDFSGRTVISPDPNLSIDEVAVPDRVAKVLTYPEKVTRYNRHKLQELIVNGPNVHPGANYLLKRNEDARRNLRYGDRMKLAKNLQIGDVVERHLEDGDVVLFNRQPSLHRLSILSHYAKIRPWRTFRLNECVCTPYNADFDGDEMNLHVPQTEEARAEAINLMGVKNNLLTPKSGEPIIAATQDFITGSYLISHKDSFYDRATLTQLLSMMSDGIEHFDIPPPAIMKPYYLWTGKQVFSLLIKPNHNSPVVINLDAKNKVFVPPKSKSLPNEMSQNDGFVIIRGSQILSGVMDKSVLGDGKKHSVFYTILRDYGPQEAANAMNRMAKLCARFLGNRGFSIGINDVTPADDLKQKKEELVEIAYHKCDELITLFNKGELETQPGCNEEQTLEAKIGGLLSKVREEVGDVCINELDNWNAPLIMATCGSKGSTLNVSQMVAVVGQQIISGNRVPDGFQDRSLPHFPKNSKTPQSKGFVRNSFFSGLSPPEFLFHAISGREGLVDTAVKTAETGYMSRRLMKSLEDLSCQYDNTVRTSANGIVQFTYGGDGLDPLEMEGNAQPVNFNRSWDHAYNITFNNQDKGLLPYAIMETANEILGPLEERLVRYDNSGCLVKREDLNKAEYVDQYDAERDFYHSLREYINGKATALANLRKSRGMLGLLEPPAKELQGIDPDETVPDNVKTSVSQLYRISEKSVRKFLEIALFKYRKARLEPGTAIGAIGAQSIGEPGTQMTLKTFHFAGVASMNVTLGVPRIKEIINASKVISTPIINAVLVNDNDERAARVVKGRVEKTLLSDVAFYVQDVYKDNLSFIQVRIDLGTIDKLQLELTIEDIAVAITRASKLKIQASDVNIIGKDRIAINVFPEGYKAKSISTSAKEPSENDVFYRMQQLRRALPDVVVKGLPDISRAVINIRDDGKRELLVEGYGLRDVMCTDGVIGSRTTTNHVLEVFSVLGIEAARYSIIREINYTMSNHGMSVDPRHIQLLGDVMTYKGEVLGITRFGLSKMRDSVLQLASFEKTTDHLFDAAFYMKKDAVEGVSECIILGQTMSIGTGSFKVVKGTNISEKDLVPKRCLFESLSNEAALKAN

[6] = target: T3, Pol III subunit C160 (within purified …); assay: cryo-EM structure; Pol III and IN1 both at 0.5 uM in 20 mM HEPES-NaOH pH 7.5, 170 mM NaCl, 2 mM DTT, 30 min at 4 °C; crosslinked with 0.06% glutaraldehyde; no nucleic acids (maps A-C); settings: both partners purified

stoichiometry N [1]: 1
Molecule: Ty1 integrase (IN1), recombinant (from UniProt Q12414 583-1217) (enzyme)

binding result [2]: binds | binding result [3]: binds | binding result [4]: binds | binding result [5]: binds
B1: Pol III subunit C11 (within purified Pol III) (natural protein, UniProt Q04307 1-110, looked up)
chain: MLSFCPSCNNMLLITSGDSGVYTLACRSCPYEFPIEGIEIYDRKKLPRKEVDDVLGGGWDNVDQTKTQCPNYDTCGGESAYFFQLQIRSADEPMTTFYKCVNCGHRWKEN
notes: RNA polymerase III subunit C11, S. cerevisiae; two Zn-ribbons (residues 1-36 and 64-110) joined by a linker (37-63); Subunit of m2, written alone for the pairs that touch in the structures; source: endogenous, S. cerevisiae strain SC1613, purified as part of Pol III (IgG Sepharose, TEV elution, Mono-Q)

Molecule: B2
binding result [6]: binds

Source: publication PMC10050235, “Structural basis of Ty1 integrase tethering to RNA polymerase III for targeted retrotransposon integration” (Nature Communications, 2023)
